{"source": "paper PMC11221534", "about": "“A minimal RNA substrate with dual fluorescent probes enables rapid kinetics and provides insight into bacterial RNase P active site interactions”", "key": {"[1]": {"biological_target": "T1, E. coli RNase P holoenzyme (C5 protein + P RNA), wild type (Escherichia coli, UniProt P0A7Y8 1-119)", "T1 sequence": "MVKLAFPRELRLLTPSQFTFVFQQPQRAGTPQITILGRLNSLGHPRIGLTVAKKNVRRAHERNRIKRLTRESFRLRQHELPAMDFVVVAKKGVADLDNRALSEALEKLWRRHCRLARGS", "test": "single-turnover kinetics by PAGE (K' from kobs vs [E]); 17.5 mM Mg2+, pH 6; K' approximates Kd; 50 mM MES pH 6, 100 mM NaCl, 17.5 mM MgCl2 (or CaCl2), 0.015% Triton X-100 reduced, 37 C (PAGE single turnover); stopped-flow in similar buffer", "conditions": "protein: recombinant; label: 5' Cy3 on strand 1; 12 bp continuous helix with one U-G wobble; 5' overhang 9 nt, 3' overhang 4 nt (GCCA)"}, "[2]": {"biological_target": "T2, E. coli RNase P holoenzyme, P RNA C70U (Escherichia coli, UniProt P0A7Y8 1-119)", "T2 sequence": "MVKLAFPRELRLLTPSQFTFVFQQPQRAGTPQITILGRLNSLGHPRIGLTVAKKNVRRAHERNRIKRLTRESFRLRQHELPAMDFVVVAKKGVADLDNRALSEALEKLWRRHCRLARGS", "test": "single-turnover kinetics by PAGE (K'); 17.5 mM Mg2+; imprecise, very slow cleavage; 50 mM MES pH 6, 100 mM NaCl, 17.5 mM MgCl2 (or CaCl2), 0.015% Triton X-100 reduced, 37 C (PAGE single turnover); stopped-flow in similar buffer", "conditions": "protein: recombinant; label: 5' Cy3 on strand 1; 12 bp continuous helix with one U-G wobble; 5' overhang 9 nt, 3' overhang 4 nt (GCCA)"}, "[3]": {"biological_target": "T3, E. coli RNase P holoenzyme, P RNA U69A (Escherichia coli, UniProt P0A7Y8 1-119)", "T3 sequence": "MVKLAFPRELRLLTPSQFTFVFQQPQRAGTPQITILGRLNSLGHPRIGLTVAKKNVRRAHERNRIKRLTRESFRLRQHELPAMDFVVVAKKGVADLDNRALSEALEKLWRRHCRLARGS", "test": "single-turnover kinetics by PAGE (K'); 17.5 mM Mg2+; imprecise, very slow cleavage; 50 mM MES pH 6, 100 mM NaCl, 17.5 mM MgCl2 (or CaCl2), 0.015% Triton X-100 reduced, 37 C (PAGE single turnover); stopped-flow in similar buffer", "conditions": "protein: recombinant; label: 5' Cy3 on strand 1; 12 bp continuous helix with one U-G wobble; 5' overhang 9 nt, 3' overhang 4 nt (GCCA)"}, "[4]": {"biological_target": "T1, E. coli RNase P holoenzyme (C5 protein …)", "test": "stopped-flow 2Ap fluorescence, global fit (k-1/k1); 17.5 mM Mg2+; k1 0.43e6 M-1 s-1, k-1 0.084 s-1; 50 mM MES pH 6, 100 mM NaCl, 17.5 mM MgCl2 (or CaCl2), 0.015% Triton X-100 reduced, 37 C (PAGE single turnover); stopped-flow in similar buffer", "conditions": "protein: recombinant; label: 2-aminopurine; 12 bp continuous helix with one U-G wobble; 5' overhang 9 nt, 3' overhang 4 nt (GCCA)"}}, "data": [{"binder": "5'Cy3-MD1 (dsRNA, 2-aminopurine at position 8 (N-2) as printed, written A; Table 1 appears to swap the Cy3 between 5'Cy3-MD1 and 5'Ap(-2)-MD1) RNA 1: ACCCAAAAUGGUCCGGGCGGG RNA 2: CCCGUCCGGACCGCCA", "values": [{"measurement": "Kd", "setting": "[1]", "value": 189, "unit": "nM"}, {"measurement": "Kd", "setting": "[2]", "value": "< 250", "unit": "nM"}, {"measurement": "Kd", "setting": "[3]", "value": "< 250", "unit": "nM"}]}, {"binder": "5'Ap(-2)-MD1 (dsRNA, 2-aminopurine at position 8 (N-2), written A; Table 1 prints a 5' Cy3 (apparently swapped with 5'Cy3-MD1)) RNA 1: ACCCAAAAUGGUCCGGGCGGG RNA 2: CCCGUCCGGACCGCCA", "values": [{"measurement": "Kd", "setting": "[4]", "value": 195, "unit": "nM"}]}]}
